Data on one molecule can be found in patent US20050223428A1 (published 2005).

The target in this test is T1, ERCAT-MBP (ERECTA kinase domain fused to maltose binding protein, kinase-active) (Arabidopsis, UniProt Q42371 611-976).
T1 construct: Expressed in E. coli from pMAL-c2 and purified on amylose resin; dot-blotted on nitrocellulose
T1 sequence: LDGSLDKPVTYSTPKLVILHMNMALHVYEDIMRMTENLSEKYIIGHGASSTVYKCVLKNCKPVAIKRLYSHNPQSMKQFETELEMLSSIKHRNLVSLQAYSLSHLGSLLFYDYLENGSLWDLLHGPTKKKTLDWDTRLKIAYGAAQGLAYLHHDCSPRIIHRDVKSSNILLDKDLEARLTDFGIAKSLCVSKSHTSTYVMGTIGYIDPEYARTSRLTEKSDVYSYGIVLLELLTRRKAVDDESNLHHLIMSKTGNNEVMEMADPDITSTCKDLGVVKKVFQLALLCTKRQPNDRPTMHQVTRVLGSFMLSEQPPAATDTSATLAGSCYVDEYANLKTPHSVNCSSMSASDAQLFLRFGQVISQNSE
Nature of the test: far-western dot blot with 32P-labelled GST-KID. From the text: Far-Western Analysis of the ERECTA-KAPP Interaction: For protein-protein interaction (far-western) blot analysis, the kinase domains of ERECTA and RLK5 were expressed as MBP fusions. The ERECTA kinase domain (corresponding to amino acids 611 to 977) was amplified from cDNA using the primers ERK4 (5′ […] 3′, SEQ ID NO:34) and ER3rc (5′ […] 3′, SEQ ID NO:35). The amplified fragment was digested with EcoRI and BamHI and introduced into pSP73-delta-AatII to generate pKUT503. […] The first round of PCR was performed with the primer pairs ERK4 and ERK13/K676E (5′ […] 3′, SEQ ID NO:36) and ERKI5/K676E (5′ […] 3′, SEQ ID NO:37) and ERCodeC3 (5′ […] 3′, SEQ ID NO:38). In the next round, products from both reactions were mixed and amplified with ERK4 and ERCodeC3. The amplified fragment was digested with EcoRI and BamHI and introduced into the plasmid pSP73-delta-AatII to generate pKUT536. The EcoRI-SalI fragments of both pKUT503 and pKUT536 were cloned into pMAL-c2 (New England Biolabs). The plasmids RLK5CAT-MBP, RLK5CAT(K711E)MBP, and GST-KID 134 were generous gifts from John Walker (University of Missouri, Columbia). […] Protein concentrations were determined with Bio-Rad Protein Assay Solution. […]

B1: GST-KID (kinase interaction domain of Kinase-Associated Protein Phosphatase, KAPP, fused to glutathione S-transferase) (other, UniProt P46014 180-313, looked up)
chain: SWLFLEVIAGPAIGLQHAVNSTSSSKLPVKLGRVSPSDLALKDSEVSGKHAQITWNSTKFKWELVDMGSLNGTLVNSHSISHPDLGSRKWGNPVELASDDIITLGTTTKVYVRISSQNEFQIPFKIGVASDPMA
modifications: labeled with 32P
notes: Plasmid was a gift (John Walker); expressed in E. coli, purified on glutathione-Sepharose, 32P-labelled and used as the probe in the far-western dot blot; also called KAPP KID; radiolabeled KID protein; not shown: glutathione S-transferase (GST) fusion partner
For B1, the binding result was “no binding (tested: One milligram blotted)”.
